Experiment [1] deals with cultured oocytes of sea cucumber. Kind of experiment: ERK1/2 phosphorylation (western blot) in cultured ovary / oocytes of sea cucumber. It counts as cell-based, Apostichopus japonicus. Particulars: pep234 1.0 μM, 4-hr pre-treatment; DrKiss1-10 or AjKiss1b-10 administrated cells. The protocol:
To examine the phosphorylation of ERK, cells that expressed AjKissr1/2 or other GPR54s were incubated for the indicated times with different concentrations of kisspeptins. Subsequently, cells were lysed with lysis buffer (Beyotime) that contained protease inhibitor (Roche) at 4°C for 30 min on a rocker and then scraped. Proteins were then electrophoresed on a 10% SDS polyacrylamide gel and transferred to polyvinylidene difluoride (PVDF) membranes. Membranes were blocked with 5% skimmed milk, then probed with rabbit anti-phospho-ERK1/2(Thr^202/Tyr^204) antibody (1:2000; Cell Signaling Technology), followed by detection using HRP-conjugated goat anti-rabbit IgG (Beyotime). Blots were stripped and reprobed using anti-ERK1/2 antibody (1:2000; Cell Signaling Technology) as a control for protein loading.
(§1) For in vitro experiments, the ovary and respiratory tree tissues were cut into small pieces of approximately 1 mm^3 and cultured in Leibovitz L-15 medium (HyClone) supplemented with 12.0 g/L NaCl, 0.32 g/L KCl, 0.36 g/L CaCl2, 0.6 g/L Na2SO4, 2.4 g/L MgCl2, 0.6 g/L glucose at 18°C in a humidified incubator ([Wang et al., 2020]). For ERK1/2 phosphorylation or immunofluorescence assays, samples were evaluated or fixed after 2 hr of ligand/PBS administration, with a 4 hr pre-treatment of pep234/PBS.
On the technique in general: A western blot detects proteins with antibodies after separation by electrophoresis.

For experiment [2] the test system is unchanged. The experiment can be described thus: Immunofluorescence staining of p-ERK signal in cultured oocytes (confocal microscopy). Conditions: 4-hr pre-treatment with pep234. It counts as cell-based, Apostichopus japonicus. The protocol:
Paraffin sections were baked at 60°C for 2–4 hr and placed in xylene for 15 min, twice. The slides were washed twice in 100% ethanol for 10 min each, then in 95% ethanol for 10 min, 85% ethanol for 5 min, 70% ethanol for 5 min, and 50% ethanol for 5 min, followed by washing with dH2O for 5 min, and finally washing with PBS for 5 min. Antigen unmasking was performed in sodium citrate buffer (pH 6) for 10 min at 97°C, and then cooled to room temperature. Endogenous peroxidases were blocked by 10 min incubation in 3.0% hydrogen peroxide. Nonspecific antigens were blocked by a 60 min incubation in 0.3% bovine serum albumin (BSA) in TBST. Slides were incubated with primary antibodies overnight after removing the blocking solution, followed by 2 hr incubation with fluorescein isothiocyanate (FITC)-conjugated secondary antibodies (FITC-labeled goat anti-rabbit IgG (H+L), Beyotime). […]
as §1

In experiment [3] the target is FLAG–AjKissR1 (Apostichopus japonicus).
A further experiment addresses T1, FLAG–AjKissR2 (Apostichopus japonicus).
T1 chain: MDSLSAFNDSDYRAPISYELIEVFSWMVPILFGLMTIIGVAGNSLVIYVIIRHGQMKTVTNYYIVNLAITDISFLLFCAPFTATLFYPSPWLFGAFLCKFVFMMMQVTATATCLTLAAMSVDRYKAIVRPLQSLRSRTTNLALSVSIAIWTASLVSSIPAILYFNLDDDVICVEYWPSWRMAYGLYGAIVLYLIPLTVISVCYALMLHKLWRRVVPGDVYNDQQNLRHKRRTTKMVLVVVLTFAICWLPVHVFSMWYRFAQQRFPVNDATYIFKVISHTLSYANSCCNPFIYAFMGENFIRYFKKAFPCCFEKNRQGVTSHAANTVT
The experiment can be described thus: competition with 1.0 uM FITC-AjKiss1a.

Experiment [4] addresses FLAG–AjKissR1 (Apostichopus japonicus). The experiment can be described thus: flow cytometry on cells; ligand competition: 1.0 uM FITC-AjKiss1a with unlabeled kisspeptins at the indicated concentrations on HEK293 cells expressing FLAG-AjKissR1 or FLAG-AjKissR2; on ice 60-90 min; PBS with 0.2% BSA; FITC fluorescence as percentage of total binding. (In general: In flow cytometry, cells or beads pass a laser one at a time.)

For a further experiment, the target named is T2, FLAG–AjKissR1 (Apostichopus japonicus).
T2 chain: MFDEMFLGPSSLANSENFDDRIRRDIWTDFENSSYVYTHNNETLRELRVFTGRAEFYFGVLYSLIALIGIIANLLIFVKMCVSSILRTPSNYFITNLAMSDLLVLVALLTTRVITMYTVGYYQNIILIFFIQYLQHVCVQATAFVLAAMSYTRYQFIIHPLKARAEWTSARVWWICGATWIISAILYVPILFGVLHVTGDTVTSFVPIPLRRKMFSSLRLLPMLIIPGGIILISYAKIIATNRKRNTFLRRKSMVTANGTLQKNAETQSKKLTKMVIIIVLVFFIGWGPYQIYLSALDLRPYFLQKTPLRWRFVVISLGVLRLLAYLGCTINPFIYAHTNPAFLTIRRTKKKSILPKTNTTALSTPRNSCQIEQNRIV
The experiment can be described thus: competition with 1.0 uM FITC-AjKiss1a.

The target in experiment [5] is FLAG–AjKissR2 (Apostichopus japonicus). Kind of experiment: flow cytometry on cells; ligand competition: 1.0 uM FITC-AjKiss1a with unlabeled kisspeptins at the indicated concentrations on HEK293 cells expressing FLAG-AjKissR1 or FLAG-AjKissR2; on ice 60-90 min; PBS with 0.2% BSA; FITC fluorescence as percentage of total binding.

Experimental findings from PMC7282810, “Existence and functions of a kisspeptin neuropeptide signaling system in a non-chordate deuterostome species” (eLife, 2020) are described below.

A word on the IC50: it is the concentration needed to halve the response being measured. A low value points to higher potency.

Bridges are numbered along the chain shown (N, C = ends). Where no end group is shown, it is not given here. [ ]: non-standard residue; d: D form.

For the molecule “Ac-[dA]NWNGFG[dW]RF-NH2 [pep234, vertebrate kisspeptin antagonist]”, the “Block of kisspeptin-induced ERK phosphorylation signal, western blot (in words)” value in experiment [1] is “blocked”. Also, the “Inhibition of AjKiss1b-10-induced p-ERK signal in oocytes, confocal microscopy (in words)” value in experiment [2] is given as “inhibition”.

B1: AjKiss1b (C-terminal amidated) (peptide)
peptide: SAVKNKNKSRARPPLLPF-NH2
In experiment [3], B1 registered an EC50 of intracellular Ca2+ mobilization (Fura-2/AM) in HEK293 cells expressing FLAG-AjKissR1 of 8.06 nM. Besides, the IC50 with FLAG–AjKissR2 was found to be 1250 nM; in experiment [4], 353 nM.

B2: AjKiss1a (C-terminal amidated) (peptide)
peptide: AGSLDCLEASCEDVERRGRQPNRNAHYRTLPF-NH2
modifications: disulfide 6-11; N-terminus assumed
SMILES: CC(C)C[C@H](NC(=O)[C@H](CO)NC(=O)CNC(=O)[C@H](C)N)C(=O)N[C@@H](CC(=O)O)C(=O)N[C@H]1CSSC[C@@H](C(=O)N[C@@H](CCC(=O)O)C(=O)N[C@@H](CC(=O)O)C(=O)N[C@H](C(=O)N[C@@H](CCC(=O)O)C(=O)N[C@@H](CCCNC(=N)N)C(=O)N[C@@H](CCCNC(=N)N)C(=O)NCC(=O)N[C@@H](CCCNC(=N)N)C(=O)N[C@@H](CCC(N)=O)C(=O)N2CCC[C@H]2C(=O)N[C@@H](CC(N)=O)C(=O)N[C@@H](CCCNC(=N)N)C(=O)N[C@@H](CC(N)=O)C(=O)N[C@@H](C)C(=O)N[C@@H](Cc2c[nH]cn2)C(=O)N[C@@H](Cc2ccc(O)cc2)C(=O)N[C@@H](CCCNC(=N)N)C(=O)N[C@H](C(=O)N[C@@H](CC(C)C)C(=O)N2CCC[C@H]2C(=O)N[C@@H](Cc2ccccc2)C(N)=O)[C@@H](C)O)C(C)C)NC(=O)[C@H](CO)NC(=O)[C@H](C)NC(=O)[C@H](CCC(=O)O)NC(=O)[C@H](CC(C)C)NC1=O
As to B2, the IC50 is 568 nM in the experiment with FLAG–AjKissR1 and 95.2 nM in experiment [5].
